Ends that are not written are not given here.

Data set [1] concerns T1, AAPFFK cross-linked dextran hydrogel.
T1 sequence: AAPFFK

Data set [2] deals with T2, AAPVAAK cross-linked dextran hydrogel.
T2 sequence: AAPVAAK

Data set [3] addresses T3, Ala-Ala-Pro-Val-Ala-Ala-Lys-NH2 (AAPVAAK) peptide cross-linker in acrylamide hydrogel film (not fully specified).
T3 chain: AAPVAAK

The target of data set [4] is T4, AAPVAAK cross-linked dextran hydrogel (not fully specified).
T4 chain: AAPVAAK

For data set [5], the target named is T5, AAPFFK cross-linked dextran hydrogel.
T5 chain: AAPFFK

For another data set, the target named is T6, BSA (UniProt P02769 25-607).
T6 construct: Control protein added instead of HNE
The experiment in a line: QCM admittance (mass, delta XL) on peptide hydrogel film.

T6 sequence (P02769 25-607 limits assumed): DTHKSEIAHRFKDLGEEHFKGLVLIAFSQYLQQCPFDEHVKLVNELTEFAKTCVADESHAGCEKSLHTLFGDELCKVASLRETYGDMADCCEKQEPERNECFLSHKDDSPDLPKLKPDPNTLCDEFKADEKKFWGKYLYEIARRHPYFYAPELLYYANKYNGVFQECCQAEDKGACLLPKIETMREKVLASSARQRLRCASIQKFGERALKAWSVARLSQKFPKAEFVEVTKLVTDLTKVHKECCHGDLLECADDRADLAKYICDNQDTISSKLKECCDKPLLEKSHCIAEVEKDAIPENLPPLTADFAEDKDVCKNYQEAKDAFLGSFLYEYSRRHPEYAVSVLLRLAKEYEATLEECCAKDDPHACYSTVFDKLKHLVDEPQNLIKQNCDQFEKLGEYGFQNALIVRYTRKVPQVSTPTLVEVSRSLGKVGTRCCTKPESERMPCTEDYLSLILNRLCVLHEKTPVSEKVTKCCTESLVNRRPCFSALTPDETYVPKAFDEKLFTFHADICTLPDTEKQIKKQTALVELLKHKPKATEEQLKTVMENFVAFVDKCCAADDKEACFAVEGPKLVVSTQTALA

In the case of cathepsin G, in data set [1], the “degradation of hydrogel film monitored by QCM resonant frequency, 100 mU/ml cathepsin G” value was “Cathepsin G caused the films to degrade resulting in an increase in resonant frequency”. In addition, the “degradation of hydrogel film monitored by QCM, 100 mU cathepsin G” value in data set [2] is reported as “slow degradation was observed, indicating some minor cross-sensitivity”.

B1: Human Neutrophil Elastase (protein)
chain: IVGGRRARPHAWPFMVSLQLRGGHFCGATLIAPNFVMSAAHCVANVNVRAVRVVLGAHNLSRREPTRQVFAVQRIFENGYDPVNLLNDIVILQLNGSATINANVQVAQLPAQGRRLGNGVQCLAMGWGLLGRNRGIASVLQELNVTVVTSLCRRSNVCTLVRGRQAGVCFGDSGSPLVCNGLIHGIASFVRGGCASGLYPDAFAPVAQFVNWIDSIIQ
Turning to B1, in data set [3], the “change of QCM parameter delta XL (mass of the hydrogel film) after addition of HNE” value is “The gradual decrease in mass was due to the breakage of peptide bonds and the subsequent dissolution of the film resulting in mass loss from the surface of the crystal”; the “change of QCM resistive component delta R after addition of HNE” value was “The gradual decrease was caused by the cleavage of peptide bonds and subsequent dissolution of the hydrogel by the action of the enzyme human neutrophil elastase”. In addition, in data set [4], the “degradation of hydrogel film monitored by QCM resonance frequency (25% cross-linked film)” value was “After 10 min of enzyme exposure, the film was completely degraded” and the “degradation of hydrogel film monitored by QCM resonance frequency (50% cross-linked, reduced film)” value is reported as “the rate of degradation increased when the HNE concentration was increased”. Moreover, in data set [5], the “degradation of hydrogel film monitored by QCM, 10 U/ml HNE” value is on record as “There was no noticeable degradation of the hydrogel when HNE was introduced”.

B2: Ala-Ala-Pro-Val-Ala-Ala-Lys-NH2 (AAPVAAK) peptide cross-linker in acrylamide hydrogel film (peptide)
peptide: AAPVAAK-NH2
modifications: not fully specified (N-terminus); printed as Ala-Ala-Pro-Val-Ala-Ala-Lys-NH2; also: both ends capped with acryloyl group, copolymerised with acrylamide into hydrogel film
With B2, the binding result with BSA is on record as “no binding”.
